T1: GST-AbaA (Aspergillus nidulans, UniProt P20945 1-588)
T1 sequence: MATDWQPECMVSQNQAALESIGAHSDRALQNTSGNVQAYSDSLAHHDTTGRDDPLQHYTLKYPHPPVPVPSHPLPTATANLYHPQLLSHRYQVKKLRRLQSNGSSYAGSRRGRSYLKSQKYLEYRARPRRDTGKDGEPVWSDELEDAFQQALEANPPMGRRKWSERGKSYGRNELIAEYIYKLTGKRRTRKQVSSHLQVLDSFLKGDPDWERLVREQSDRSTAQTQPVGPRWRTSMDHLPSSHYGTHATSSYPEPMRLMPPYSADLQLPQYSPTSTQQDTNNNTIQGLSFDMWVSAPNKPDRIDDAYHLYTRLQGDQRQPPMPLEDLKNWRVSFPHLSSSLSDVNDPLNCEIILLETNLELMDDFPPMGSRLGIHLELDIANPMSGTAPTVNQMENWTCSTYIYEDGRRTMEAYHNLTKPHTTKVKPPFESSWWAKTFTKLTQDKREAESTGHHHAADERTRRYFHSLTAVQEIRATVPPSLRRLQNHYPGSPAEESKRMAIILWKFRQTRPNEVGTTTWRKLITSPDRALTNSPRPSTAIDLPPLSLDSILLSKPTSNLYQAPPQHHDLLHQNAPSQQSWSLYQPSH


Molecular target: T1, GST-AbaA
Assay: EMSA; 6% glycerol, 12 mM HEPES-KOH pH 7.6, 4 mM Tris-HCl pH 8.0, 1 mM EDTA, 0.5 mM DTT, 0-12 ug poly(dI-dC), ~10 ng probe in 24 ul; RT, 20 min; 6% PAGE, TBE
Settings: protein: recombinant; tags: N-terminal GST (pGEX-5X-1); label: 32P (5' end, T4 PNK); blunt

Binder	binding result
velB EMSA probe 2 (dsDNA) DNA 1: AGCTCCAGCTCCATTCCGCACGGTCATTCCGTTCTCGGCG DNA 2: CGCCGAGAACGGAATGACCGTGCGGAATGGAGCTGGAGCT	binds
velB EMSA probe 1 (dsDNA) DNA 1: CAGCTCCATTCCGCACGGTCATTCC DNA 2: GGAATGACCGTGCGGAATGGAGCTG	binds
vosA EMSA probe 3 (dsDNA) DNA 1: GTGGTTCCTTACCTCATTCCCGACCTTTTTTGCC DNA 2: GGCAAAAAAGGTCGGGAATGAGGTAAGGAACCAC	binds

Reference: article PMC3457981, “The Role, Interaction and Regulation of the Velvet Regulator VelB in Aspergillus nidulans”
